These results are taken from publication PMC1950529.

Like-named read-outs stand apart in the source and are kept apart here.

For assay [1], the target named is Thermus aquaticus DnaB helicase (Thermus aquaticus). The assay is described as follows: SEC. Background: SEC sorts molecules by how far they enter the pores of the column.
The target is the same in assay [2]. Nature of the assay: SEC. The source holds these as a separate data set.

Take “Thermus aquaticus DnaB helicase (enzyme)”: the stoichiometry N in assay [1] and in assay [2] was 6 throughout.
